Test results reported in publication PMC9701186 (Nature Communications, 2022).

B1: CC5-17 mAb (antibody, V domains shown)
VH: EVQLVQSGAEVKKPGESLRISCKGSGYSFTSYWIGWVRQMPGKGLEWMGIIYPGDSDTRYSPSFQGQVTISADKSISTAYLQWTSLKASDTAMYYCARQLGGSSFGNYYDSGSYYTAAYWGQGTLVTVSS
VL: DIQMTQSPSSLSASVGDRVTITCRASQSINNYLNWYQQKPGKAPKLLIYAASTLQSGVPSRFSGSGSGTDFTLTISSLQPEDFASYYCQQSYRGTFGQGTKVEFK
notes: copies: 2 + 2
B2: CC5-17 mAb (antibody, V domains shown)
VH: B1 VH
VL: B1 VL
B3: human chimeric 13G8 mAb (c13G8) (antibody, V domains shown)
VH: DVQLQQSGPGLVAPSQSLSITCTVSGFSLTNYGIHWVRQPPGKGLEWLGVIWAGGYTKYNSALMSRLSMSKDNSKSQVFLKMNSLQTDDTAMYYCARDEVRRDYYAMDHWGQGTTVTVSS
VL: DIQMTQSPAILSASPGEKVTMTCWASSGVSYMHWYQQKPGSSPKPWIFATSNLASGVPARFSGSGSGTSYSLTISRVEAEDAATYYCQQWSFNPLTFGAGTKLEIK
notes: copies: 2 + 2
B4: human chimeric 13G8 mAb (c13G8) (antibody, V domains shown)
VH: B3 VH
VL: B3 VL
notes: source: Expi293 cells, purified (mAb Select Sure column)

What was measured:
[1] = target: Aigai virus strain Pentalofos GP38 (Aigai virus, strain Pentalofos, UniProt A0A2P1JMM7, strain); assay: BLI; […]; antibody (1 µg/mL) […] (AHC) sensors; […]; 300 s association, 600 s dissociation; global 1:1 fit; details: both partners purified
[2] = target: Aigai virus strain Pentalofos GP38 (Aigai virus, strain Pentalofos, UniProt A0A2P1JMM7, strain); assay: BLI; […]; mAb (1 µg/mL) […] (AHC) sensors; […]; 1× Octet kinetics buffer; global 1:1 fit; details: both partners purified

Binder	binding result [1]	binding result [2]
B1	no binding (tested: 100nM)	–
B2	–	no binding (tested: up to 20.0 nM GP38)
B3	no binding (tested: 100nM)	–
B4	–	no binding (tested: up to 20.0 nM GP38)
